Columns and labels:
Experiment in all cases: ELISA, coated CNTN4 domain sample, anti-human IgG Fc-HRP
[1] = target: T1, Human CNTN4 domain sample D1-6 (human, UniProt Q8IWV2 19-586, limits assumed)
T1 construct: domain: Domains 1 to 6; Coated at 2.3 ug/mL
T1 sequence (looked up): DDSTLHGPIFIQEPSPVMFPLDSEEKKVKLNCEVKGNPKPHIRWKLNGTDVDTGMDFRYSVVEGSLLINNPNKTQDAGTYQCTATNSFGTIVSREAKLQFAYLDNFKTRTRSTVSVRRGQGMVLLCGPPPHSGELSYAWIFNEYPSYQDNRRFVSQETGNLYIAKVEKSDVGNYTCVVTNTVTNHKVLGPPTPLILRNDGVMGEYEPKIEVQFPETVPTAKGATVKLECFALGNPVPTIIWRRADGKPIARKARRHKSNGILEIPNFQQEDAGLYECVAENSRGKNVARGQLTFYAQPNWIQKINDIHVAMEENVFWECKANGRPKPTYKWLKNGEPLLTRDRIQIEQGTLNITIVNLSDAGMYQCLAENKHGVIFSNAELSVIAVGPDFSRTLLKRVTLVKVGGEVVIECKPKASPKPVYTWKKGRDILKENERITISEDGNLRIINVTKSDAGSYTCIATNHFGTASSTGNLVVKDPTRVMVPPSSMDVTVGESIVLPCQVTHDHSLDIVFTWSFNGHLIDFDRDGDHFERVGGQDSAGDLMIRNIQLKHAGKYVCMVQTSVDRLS

[2] = target: T2, Human CNTN4 domain sample D1-7 (human, UniProt Q8IWV2 19-697, limits assumed)
T2 construct: domain: Domains 1 to 7; Coated at 2.8 ug/mL
T2 sequence (looked up): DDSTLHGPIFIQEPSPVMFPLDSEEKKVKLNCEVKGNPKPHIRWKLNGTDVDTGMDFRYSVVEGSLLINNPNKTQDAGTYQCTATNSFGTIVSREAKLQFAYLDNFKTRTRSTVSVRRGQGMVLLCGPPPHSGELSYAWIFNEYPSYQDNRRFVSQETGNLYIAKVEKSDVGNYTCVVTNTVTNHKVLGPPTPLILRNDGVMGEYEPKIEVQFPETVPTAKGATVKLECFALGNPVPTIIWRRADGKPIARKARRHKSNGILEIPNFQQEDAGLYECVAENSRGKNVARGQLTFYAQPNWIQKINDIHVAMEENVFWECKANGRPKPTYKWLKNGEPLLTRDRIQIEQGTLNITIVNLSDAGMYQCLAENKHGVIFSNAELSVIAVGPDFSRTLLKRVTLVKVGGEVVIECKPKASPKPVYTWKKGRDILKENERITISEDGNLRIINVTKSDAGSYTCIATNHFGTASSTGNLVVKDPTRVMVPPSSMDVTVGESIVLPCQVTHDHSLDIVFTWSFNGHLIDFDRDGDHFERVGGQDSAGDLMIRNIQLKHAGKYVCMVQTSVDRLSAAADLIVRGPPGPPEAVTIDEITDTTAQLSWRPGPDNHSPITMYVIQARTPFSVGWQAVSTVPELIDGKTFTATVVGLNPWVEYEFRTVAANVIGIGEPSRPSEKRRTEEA

[3] = target: T3, Human CNTN4 domain sample D1-8 (human, UniProt Q8IWV2 19-799, limits assumed)
T3 construct: domain: Domains 1 to 8; Coated at 3.2 ug/mL
T3 sequence (looked up): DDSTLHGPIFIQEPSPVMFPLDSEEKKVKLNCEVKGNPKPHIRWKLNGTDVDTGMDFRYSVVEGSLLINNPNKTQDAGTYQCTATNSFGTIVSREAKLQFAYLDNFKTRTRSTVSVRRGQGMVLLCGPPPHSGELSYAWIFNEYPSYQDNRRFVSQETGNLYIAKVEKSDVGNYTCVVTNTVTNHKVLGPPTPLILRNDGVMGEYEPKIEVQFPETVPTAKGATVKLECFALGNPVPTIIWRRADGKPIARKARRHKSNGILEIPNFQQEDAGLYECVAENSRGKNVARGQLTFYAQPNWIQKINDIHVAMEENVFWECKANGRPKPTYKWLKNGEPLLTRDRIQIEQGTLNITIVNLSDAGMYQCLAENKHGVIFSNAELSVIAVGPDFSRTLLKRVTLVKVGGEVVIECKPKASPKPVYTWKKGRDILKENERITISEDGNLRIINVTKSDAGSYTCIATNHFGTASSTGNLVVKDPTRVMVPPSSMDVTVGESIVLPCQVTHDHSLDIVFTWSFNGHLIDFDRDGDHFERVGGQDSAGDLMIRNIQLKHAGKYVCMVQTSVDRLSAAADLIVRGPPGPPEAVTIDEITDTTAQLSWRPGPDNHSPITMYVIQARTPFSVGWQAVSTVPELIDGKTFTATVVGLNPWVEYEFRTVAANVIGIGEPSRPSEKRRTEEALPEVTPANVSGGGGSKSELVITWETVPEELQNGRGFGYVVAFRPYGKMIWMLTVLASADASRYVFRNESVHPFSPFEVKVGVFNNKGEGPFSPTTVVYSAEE

[4] = target: T4, Human CNTN4 domain sample D1-9 (human, UniProt Q8IWV2 19-899, limits assumed)
T4 construct: domain: Domains 1 to 9; Coated at 3.6 ug/mL
T4 sequence (looked up): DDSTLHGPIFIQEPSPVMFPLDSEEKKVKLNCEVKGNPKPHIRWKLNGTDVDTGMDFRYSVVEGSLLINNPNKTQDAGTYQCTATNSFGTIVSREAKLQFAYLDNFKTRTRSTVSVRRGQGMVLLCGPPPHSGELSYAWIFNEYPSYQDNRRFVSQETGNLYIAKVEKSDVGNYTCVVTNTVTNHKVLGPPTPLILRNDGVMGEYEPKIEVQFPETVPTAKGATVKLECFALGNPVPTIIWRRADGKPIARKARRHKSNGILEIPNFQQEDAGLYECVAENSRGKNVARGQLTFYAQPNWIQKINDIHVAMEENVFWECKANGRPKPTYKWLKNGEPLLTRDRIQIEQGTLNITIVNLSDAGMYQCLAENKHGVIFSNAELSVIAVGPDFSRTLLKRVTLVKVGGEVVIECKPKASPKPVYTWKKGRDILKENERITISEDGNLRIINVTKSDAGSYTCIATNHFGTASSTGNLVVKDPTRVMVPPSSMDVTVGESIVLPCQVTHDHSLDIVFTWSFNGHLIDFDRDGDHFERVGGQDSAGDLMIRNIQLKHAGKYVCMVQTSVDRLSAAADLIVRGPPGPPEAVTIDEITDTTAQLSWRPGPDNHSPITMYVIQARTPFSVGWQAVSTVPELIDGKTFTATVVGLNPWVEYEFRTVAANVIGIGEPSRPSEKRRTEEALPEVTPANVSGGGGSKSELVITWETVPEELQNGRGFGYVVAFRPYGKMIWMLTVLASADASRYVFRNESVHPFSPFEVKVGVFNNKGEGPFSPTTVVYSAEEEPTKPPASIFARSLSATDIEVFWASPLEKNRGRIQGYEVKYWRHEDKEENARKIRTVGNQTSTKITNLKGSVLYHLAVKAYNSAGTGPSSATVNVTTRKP

[5] = target: T5, Human CNTN4 domain sample Full (Domains 1 to 10) (human, UniProt Q8IWV2 19-1000, limits assumed)
T5 construct: domain: Domains 1 to 10 (Ig1 to FN4); Coated on the ELISA plate at 4 ug/mL
T5 sequence (looked up): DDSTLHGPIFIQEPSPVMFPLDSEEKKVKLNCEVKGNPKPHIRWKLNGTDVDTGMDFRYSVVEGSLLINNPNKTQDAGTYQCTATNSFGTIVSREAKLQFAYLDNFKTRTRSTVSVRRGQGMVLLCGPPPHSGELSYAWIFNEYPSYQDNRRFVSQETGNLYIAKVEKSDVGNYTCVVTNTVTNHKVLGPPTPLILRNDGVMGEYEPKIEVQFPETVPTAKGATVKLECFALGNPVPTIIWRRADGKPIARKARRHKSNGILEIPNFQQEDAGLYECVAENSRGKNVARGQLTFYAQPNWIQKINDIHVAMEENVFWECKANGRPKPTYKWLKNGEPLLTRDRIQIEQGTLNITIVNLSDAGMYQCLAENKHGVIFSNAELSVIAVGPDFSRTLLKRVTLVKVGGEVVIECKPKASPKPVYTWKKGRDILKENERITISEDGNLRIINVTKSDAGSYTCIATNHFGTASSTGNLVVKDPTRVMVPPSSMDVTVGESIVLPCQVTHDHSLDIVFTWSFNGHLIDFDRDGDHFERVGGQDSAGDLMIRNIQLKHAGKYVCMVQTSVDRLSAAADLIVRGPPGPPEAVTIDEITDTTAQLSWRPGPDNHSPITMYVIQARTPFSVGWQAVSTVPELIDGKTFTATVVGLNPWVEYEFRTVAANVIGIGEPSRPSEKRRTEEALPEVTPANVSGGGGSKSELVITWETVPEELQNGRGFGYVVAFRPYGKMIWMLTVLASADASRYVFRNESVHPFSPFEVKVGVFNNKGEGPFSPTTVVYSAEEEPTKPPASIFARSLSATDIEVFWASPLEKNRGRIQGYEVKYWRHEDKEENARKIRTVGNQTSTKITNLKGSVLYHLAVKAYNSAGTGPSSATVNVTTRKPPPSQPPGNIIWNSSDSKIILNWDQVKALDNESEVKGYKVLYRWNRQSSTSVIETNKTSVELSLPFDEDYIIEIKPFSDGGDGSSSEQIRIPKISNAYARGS

[6] = target: T6, Human CNTN4 domain sample D1-4 (human, UniProt Q8IWV2 19-400, limits assumed)
T6 construct: domain: Domains 1 to 4; Coated at 1.6 ug/mL
T6 sequence (looked up): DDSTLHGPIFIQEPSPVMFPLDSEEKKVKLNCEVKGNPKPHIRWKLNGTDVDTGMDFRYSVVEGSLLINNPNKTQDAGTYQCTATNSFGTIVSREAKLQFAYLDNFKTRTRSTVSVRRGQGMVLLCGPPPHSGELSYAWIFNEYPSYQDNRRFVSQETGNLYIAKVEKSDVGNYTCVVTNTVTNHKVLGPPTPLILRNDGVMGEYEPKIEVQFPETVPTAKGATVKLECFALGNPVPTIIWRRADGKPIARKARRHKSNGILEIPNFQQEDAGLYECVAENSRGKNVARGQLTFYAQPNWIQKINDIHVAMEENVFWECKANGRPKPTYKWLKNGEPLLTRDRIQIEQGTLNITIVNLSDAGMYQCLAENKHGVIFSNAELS

[7] = target: T7, Human CNTN4 domain sample D1-5 (human, UniProt Q8IWV2 19-493, limits assumed)
T7 construct: domain: Domains 1 to 5; Coated at 2.0 ug/mL
T7 sequence (looked up): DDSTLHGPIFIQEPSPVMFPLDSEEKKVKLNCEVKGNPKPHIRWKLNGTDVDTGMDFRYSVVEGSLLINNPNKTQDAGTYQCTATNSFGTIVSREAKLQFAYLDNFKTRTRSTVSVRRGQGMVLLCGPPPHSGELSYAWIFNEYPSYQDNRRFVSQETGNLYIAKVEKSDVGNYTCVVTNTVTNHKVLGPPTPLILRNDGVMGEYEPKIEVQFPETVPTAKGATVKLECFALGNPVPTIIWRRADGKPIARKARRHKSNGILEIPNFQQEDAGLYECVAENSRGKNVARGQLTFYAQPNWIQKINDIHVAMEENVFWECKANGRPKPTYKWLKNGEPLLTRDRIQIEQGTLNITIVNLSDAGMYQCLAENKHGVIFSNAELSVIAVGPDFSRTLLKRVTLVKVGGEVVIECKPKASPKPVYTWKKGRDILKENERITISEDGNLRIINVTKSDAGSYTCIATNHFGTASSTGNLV

- binding result [1]: no binding
- binding result [2]: no binding
- binding result [3]: binds
- binding result [4]: binds
- binding result [5]: binds
- binding result [6]: no binding
- binding result [7]: no binding
B1: anti-CNTN4 chicken-human chimeric IgG4 antibody AB1 (antibody, V domains shown)
VH: AVTLDESEGGLQTPGGALSLVCKASGFTFSSFNMFWVRQAPGKGLEYVAEISGGGGSTWYAPAVKGRATISRDNGQSTVRLQLNNLRAEDTGTYYCAKSADTWSYGAATIDAWGHGTEVIVSS
VL: ALTQPSSVSANLGETVKITCSGSSGSYGWYQQKSPGSAPVTLIYDNTNRPSDIPSRFSGSGSGSTGTLTITGVRAEDEAVYYCGGYDGSTDVFGAGTTLTVL
notes: They were cloned into a chicken-human chimeric IgG4 and purified on Kappa select resin, so the light chain has a kappa constant region; also called anti-CNTN4 antibody AB1; anti-CNTN4 129 chimeric IgG4 antibody
